Consider two substances from PMC11905679.

The target of assay [1] is α-chymotrypsin (bovine).
For assay [2], the target named is α-chymotrypsin (bovine). The source holds these as a separate data set.
Assay [3] deals with α-chymotrypsin (bovine). Kind of assay: enzyme inhibition kinetics.
In assay [4] the target is α-chymotrypsin (bovine). This is another data set of the same source.

For “Trichinella pseudospiralis serine protease inhibitor (Tp-serpin) (natural protein)”, in the assay with α-chymotrypsin (bovine) [1], the stoichiometry of inhibition (SI), residual chymotrypsin activity against the molar ratio [I]/[E] stood at 1.19. The substance also came in with an inhibition rate of α-chymotrypsin enzyme activity at 200 nM serpin with α-chymotrypsin (bovine) [2] of more than 80%. Moreover, in the assay with α-chymotrypsin (bovine) [3], the Ki came to 0.0479 µM. In the assay with α-chymotrypsin (bovine) [4], this substance returned a k3, rate constant of the irreversible inhibition of α-chymotrypsin (BTEE hydrolysis, 256 nm) of 0.00235 s⁻¹.

Take “Trichinella spiralis serine protease inhibitor (Ts-serpin) (natural protein)”: the stoichiometry of inhibition (SI), residual chymotrypsin activity against the molar ratio [I]/[E] in the assay with α-chymotrypsin (bovine) [1] came out at 1.21. This substance also yielded an inhibition rate of α-chymotrypsin enzyme activity at 200 nM serpin in the assay with α-chymotrypsin (bovine) [2] of more than 80%. This substance also showed a Ki in the assay with α-chymotrypsin (bovine) [3] of 0.0492 µM. This substance came in with a k3, rate constant of the irreversible inhibition of α-chymotrypsin (BTEE hydrolysis, 256 nm) with α-chymotrypsin (bovine) [4] of 0.00247 s⁻¹.
